Here are results for two molecules from PMC4943861 (ACS chemical biology, 2015).

This test deals with activation loop-phosphorylated ERK2 (Homo sapiens, UniProt P28482). Description: In vitro activity assay against activation loop-phosphorylated ERK2. The class given is biochemical. The conditions noted are these: read-out: IC50 against ERK2, triplicate.
activation loop-phosphorylated ERK2, sequence (P28482 whole entry): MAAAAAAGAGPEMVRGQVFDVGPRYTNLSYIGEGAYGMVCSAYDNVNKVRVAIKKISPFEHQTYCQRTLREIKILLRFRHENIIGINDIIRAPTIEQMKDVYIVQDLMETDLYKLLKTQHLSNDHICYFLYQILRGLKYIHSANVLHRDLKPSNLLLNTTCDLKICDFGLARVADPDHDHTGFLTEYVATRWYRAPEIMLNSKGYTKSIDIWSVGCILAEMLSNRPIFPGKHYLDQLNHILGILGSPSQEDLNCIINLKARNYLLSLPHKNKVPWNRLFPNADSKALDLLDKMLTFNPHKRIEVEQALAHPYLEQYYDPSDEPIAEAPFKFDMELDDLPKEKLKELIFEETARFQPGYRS

B1: SNAPtag-4: monovalent conjugate of 4 to SNAPtag (protein)
chain: GPGSDKDCEMKRTTLDSPLGKLELSGCEQGLHEIIFLGKGTSAADAVEVPAPAAVLGGPEPLMQATAWLNAYFHQPEAIEEFPVPALHHPVFQQESFTRQVLWKLLKVVKFGEVISYSHLAALAGNPAATAAVKTALSGNPVPILIPCHRVVQGDLDVGGYEGGLAVKEWLLAHEGHRLGKR
modifications: SNAPtag is engineered
By IC50 is commonly meant the midpoint of a concentration-inhibition curve. As for B1, the IC50 was found to be 3900 nM.

B2: SNAP(pE59)-4: bivalent inhibitor of activation loop-phosphorylated ERK2: SNAP(pE59) labeled with 4 (protein)
chain: GPGSDKDCEMKRTTLDSPLGKLELSGCEQGLHEIIFLGKGTSAADAVEVPAPAAVLGGPEPLMQATAWLNAYFHQPEAIEEFPVPALHHPVFQQESFTRQVLWKLLKVVKFGEVISYSHLAALAGNPAATAAVKTALSGNPVPILIPCHRVVQGDLDVGGYEGGLAVKEWLLAHEGHRLGKRDLGKKLLEAARAGQDDEVRILMANGADVNALDEDGLTPLHLAAQLGHLEIVEVLLKYGADVNAEDNFGITPLHLAAIRGHLEIVEVLLKHGADVNAQDKFGKTAFDISIDNGNEDLAEILQKLN
Take B2: the IC50 came out at 0.8 nM.
